Measurements taken from patent US7084109B2, “FVIIa antagonists” (Genentech, Inc., priority 1999, dated 2006).
No end group written: not given here.

Assays:
[1] = molecular target: TF-FVIIa (Homo sapiens, UniProt P08709); test: FX Activation Assay (activation of FX by TF-FVIIa); format: biochemical
Protocol: FX Activation Assay—Activation of FX by TF-FVIIa was monitored at room temperature as a function of peptide concentration. Each assay sample contained 100 μl of 460 pM relipidated TF1-243 (TFPC) (Kelley, R. F. et al. (1997) Blood 89:3219-3227) and 30 pM FVIIa in HBS/Ca buffer (20 mM HEPES, pH 7.4, 5 mM CaCl2, 150 mM NaCl, 0.1% PEG 8000); after 20 min, 25 μl of peptide diluted in HBS/Ca Buffer was added. Following a 30 min incubation the reaction was initiated by the addition of 25 μl of 1 μM FX in HBS/Ca (Note: this yields a final concentration of 306 pM TFPC, 20 pM FVIIa, and 166 nM FX). For kinetic analysis, the final concentration of FX was varied from between 20 and 500 nM. Aliquots of 25 μl were removed at 1, 3, 5, 7 and 9 min and quenched in 25 μl of 50 mM EDTA. The FXa generated in each aliquot could be measured by the addition of 100 μl of 250 nM Spectrozyme fXa (American Diagnostica), 50 mM Tris, pH 8, 50 mM NaCl, 0.0025% Triton X-100. The rate of FXa generated at each peptide concentration was proportional to the initial slope of the absorbance at 405 nm vs. time. Sigmoidal curves were fit to a four parameter equation by nonlinear regression analysis (Marquardt, J. Soc. Indust. Appl. Math. 11:431-441 (1963); the concentration of each peptide required to give a half-maximal signal in the assay was calculated from the curves and is referred to as the IC50 value. […]

[2] = tested on: TF dependent extrinsic clotting pathway in human plasma; test: Prothrombin time (PT) clotting assay
Protocol: Clotting Assays—Prothrombin time (PT) and activated partial thromboplastin time (APTT) clotting time assays were performed in citrated pooled normal plasmas (human or various animal species). Clotting times were determined using an ACL 300 Automated Coagulation Analyzer (Coulter Corp., Miami, Fla.) and commercially available reagents as follows.
For the PT assay, aqueous solutions of inhibitor at various concentrations were added to citrated pooled normal plasma in a ratio of 1 part inhibitor to 9 parts plasma. Following a 30 min incubation, these mixtures were added to sample cups of an ACL 300 Analyzer. Innovin® (Dade International Inc., Miami, Fla.), a mixture of human relipidated tissue factor and Ca^2+ ions was added to the reagent cup. Precise volumes of sample and Innovin® (50 μl sample, 100 μl Innovin) were automatically transferred to cells of an acrylic rotor pre-equilibrated to 37° C. Following a 2 min incubation period, coagulation was initiated by mixing the two components by centrifugation. Coagulation was monitored optically and clotting time was reported in seconds. In this system, the clotting time of control plasmas (plasma plus inhibitor diluent) was typically 8 to 10 seconds. The fold prolongation is the clotting time of the inhibitor relative to the clotting time of the control.
Clotting Assays—The PT clotting assay was carried out as described in Example 1.

Chain of TF-FVIIa (P08709 61-212 limits assumed): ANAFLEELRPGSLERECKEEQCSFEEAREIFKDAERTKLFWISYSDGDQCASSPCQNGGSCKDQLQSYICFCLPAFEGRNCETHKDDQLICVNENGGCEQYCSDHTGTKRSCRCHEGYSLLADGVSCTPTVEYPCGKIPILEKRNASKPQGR
Chain of TF-FVIIa (P08709 213-466 limits assumed): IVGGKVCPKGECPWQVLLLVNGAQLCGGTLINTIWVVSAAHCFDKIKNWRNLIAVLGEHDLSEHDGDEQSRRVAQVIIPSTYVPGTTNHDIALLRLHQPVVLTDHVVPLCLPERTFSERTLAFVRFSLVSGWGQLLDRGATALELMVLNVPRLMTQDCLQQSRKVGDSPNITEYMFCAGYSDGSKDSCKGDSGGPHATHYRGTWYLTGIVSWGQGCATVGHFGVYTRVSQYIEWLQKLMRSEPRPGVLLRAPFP
Chain of TF-FVIIa (P13726 33-275 partner limits assumed): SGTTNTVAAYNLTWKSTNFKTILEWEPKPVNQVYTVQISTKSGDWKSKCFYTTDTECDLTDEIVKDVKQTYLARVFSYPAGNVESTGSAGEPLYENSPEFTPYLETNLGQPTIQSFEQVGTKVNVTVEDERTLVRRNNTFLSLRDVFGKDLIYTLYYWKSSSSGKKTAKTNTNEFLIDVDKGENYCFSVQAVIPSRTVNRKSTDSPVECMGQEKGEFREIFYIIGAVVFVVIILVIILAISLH

ability to inhibit FX activation by TF-FVIIa [1]: comparable to the peptide TF151
Substance: TF151-Fc: peptide sequence TF151 with a GGGSSG linker fused to the Fc portion of human IgG1, expressed in insect cells; forms a dimer (SQAQRRAVGALCDNPRIDRWYCQFVEGGGGSSG-{human IgG1 Fc}; cysteine pairing not given here; also: dimer)
prolongation of the prothrombin time (potency) [2]: comparable to peptide TF151
